From the supplement of paper PMC9732359
± gives the uncertainty stated by the source.

Experiment: protein stability index of a GFP-peptide fusion (yeast GPS) (PSI 1-4); higher = more stable; sorted into four equal gates, so the index is relative within each strain
Method in brief: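 The protein stability index combines read frequencies across sorting gates, each weighted by its gate number and then summed. To obtain those frequencies, a pooled yeast library of GFP fusions to tiled 17-residue yeast protein peptides, on a plasmid also expressing Cherry, was grown to mid-log phase in leucine-free medium. The cells were sorted into four equal gates by GFP/Cherry ratio before plasmid amplification by PCR and Illumina sequencing.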

Row | Sequence | protein stability index (doa10∆) | protein stability index (pdr5∆) | protein stability index (san1∆) | protein stability index (ubr1∆)
1 | NIKTSEWDLYPQGFSSV [REC8] | 2.91 ± 0.26 | 2.82 ± 0.2 | – | –
2 | ERHQKQLNEKLVGRLRK [YCS4] | 3.19 ± 0.12 | 3.18 ± 0.11 | 3.02 ± 0.06 | 3 ± 0.065
3 | ECPLDPGGYFIVNGTEK [RET1] | 3.18 ± 0.12 | 3.34 ± 0.095 | 3.26 ± 0.088 | 3.29 ± 0.082
4 | AETKSYDSRGVGEMKLL [YLR335W/NUP2] | 1.94 ± 0.064 | 2.1 ± 0.11 | 2.25 ± 0.097 | 2.44 ± 0.079
5 | KKAAEEAGVTDVKVSIS [FAS2] | 1.44 ± 0.09 | 1.66 ± 0.08 | 2.23 ± 0.24 | 1.18 ± 0.1
6 | LGLKFDDLIAEENPIMQ [QCR7] | 2.46 ± 0.28 | 2.21 ± 0.14 | 2.32 ± 0.16 | 1.81 ± 0.079
7 | QAHTLYNSVRPFGVSTI [PRE10] | 2.71 ± 0.083 | 2.74 ± 0.071 | 2.92 ± 0.095 | 2.6 ± 0.042
8 | KKSRSNLSQENDNEGKH [YAR002W/NUP60] | 2.77 ± 0.058 | 3.12 ± 0.052 | 2.91 ± 0.049 | 3.11 ± 0.044
9 | REMALCRELHNKHLTTL [SSN3] | 1.62 ± 0.037 | 2.04 ± 0.041 | 1.87 ± 0.056 | 1.8 ± 0.038
10 | MFLTRSEYDRGVSTFSP [PUP2] | 3.58 ± 0.21 | – | – | 3.34 ± 0.11
11 | IRGILMASGSTTFTKVA [PRP8] | 2.76 ± 0.063 | 2.02 ± 0.1 | 2.02 ± 0.16 | 2.15 ± 0.088
12 | GVKDCQEGLITTTMLQL [SSN2] | 2.46 ± 0.083 | 2.5 ± 0.1 | 2.74 ± 0.079 | 2.6 ± 0.052
13 | EGRLLDNVQANDPAREK [SNF12] | 2.8 ± 0.11 | 3.21 ± 0.065 | 2.96 ± 0.05 | 3.18 ± 0.042
14 | GYDDFQEEGSFEFGNMK [FAS2] | 3.48 ± 0.14 | 3.26 ± 0.18 | 2.6 ± 0.28 | 3.33 ± 0.08
15 | GDLVYARVCTAEKELEA [RRP40] | 1.3 ± 0.09 | 1.51 ± 0.19 | 1.46 ± 0.19 | 1.2 ± 0.23
16 | VIFDASIKDTQNVGQGK [BRN1] | 2.15 ± 0.14 | 2.45 ± 0.12 | 2.61 ± 0.13 | 3.01 ± 0.096
17 | FGQASGASTGNANTGFS [YGL172W/NUP49] | 3.18 ± 0.28 | 3.39 ± 0.17 | – | –
18 | LYQTYHVLVGDLIKFSA [FAS1] | 2.2 ± 0.05 | 2.43 ± 0.052 | 2.39 ± 0.044 | 2.31 ± 0.035
19 | QLIGSNIELHSLYTSRE [PUP1] | 3.33 ± 0.25 | 3.33 ± 0.2 | 3.34 ± 0.26 | 2.91 ± 0.2
20 | VVIDAKDHLLGRLASTI [RPL16B] | 1.33 ± 0.066 | 1.25 ± 0.07 | 1.17 ± 0.12 | 1.35 ± 0.078
21 | AENSHTQPKATSTGTTI [PUP1] | 3.17 ± 0.073 | 3.1 ± 0.071 | 3.07 ± 0.06 | 3.26 ± 0.057
22 | LYPDSSSFKKNLLKFIT [RPN3] | 1.19 ± 0.075 | 1.26 ± 0.069 | 1.05 ± 0.13 | 1.25 ± 0.18
23 | FSFGAKPAEKNNNETSK [YJL041W/NSP1] | – | 2.52 ± 0.24 | – | 3.08 ± 0.24
24 | EVAQYLQEIYQTDAIKS [RPN5] | 2.3 ± 0.084 | 2.44 ± 0.099 | 2.47 ± 0.1 | 2.29 ± 0.13
25 | QELISKAFTNWNKRDFM [ISW2] | 2.27 ± 0.14 | 3.55 ± 0.23 | 1.59 ± 0.15 | 2.89 ± 0.25
26 | RYNRAVPDSKIRIYDLG [RPL10] | 2.53 ± 0.092 | 3.04 ± 0.15 | 1.89 ± 0.19 | 2.55 ± 0.1
27 | MGDNSQLDFTEFDEQYG [SNF2] | 3.31 ± 0.057 | 3.15 ± 0.067 | 3.31 ± 0.052 | 3.14 ± 0.045

Row | Sequence | protein stability index (doa10∆) | protein stability index (pdr5∆) | protein stability index (san1∆) | protein stability index (ubr1∆)
28 | LKSLYSFFNISPDAPKE [SIN4] | 2.32 ± 0.093 | 1.38 ± 0.048 | 1.43 ± 0.079 | 1.84 ± 0.049
29 | INGWELTKAQKYLDQVL [RPL17B] | 2.74 ± 0.2 | 2.9 ± 0.17 | 2.86 ± 0.1 | 2.74 ± 0.063
30 | QVDKVTKEKVNGASVPI [RPL26A] | 3.1 ± 0.077 | 3.3 ± 0.11 | 2.86 ± 0.097 | 3.08 ± 0.046
31 | EGNYRNLNNLKQENAYL [RPB8] | 3.31 ± 0.084 | 3.31 ± 0.085 | 3.27 ± 0.08 | 3.43 ± 0.068
32 | HGVLQGTSQNYGTATAD [MED1] | 3.2 ± 0.091 | 3.13 ± 0.076 | 2.96 ± 0.078 | 3.14 ± 0.052
33 | DTISAITHQLNNKFANK [RPC25] | – | 2.42 ± 0.16 | – | –
34 | VQLLLHINSILLARVIQ [SNF11] | 1.84 ± 0.12 | 1.27 ± 0.076 | – | 1.47 ± 0.087
35 | IFCIDLEVFHHFFKWIE [SRB8] | 1.25 ± 0.092 | 1.64 ± 0.16 | 1.38 ± 0.14 | –
36 | KLQLGQLYESGNPVNDA [COR1] | 3.03 ± 0.076 | 2.98 ± 0.091 | 3.17 ± 0.065 | 3.01 ± 0.077
37 | PDFLSKYSAITSSIFQE [NUT1] | 1.88 ± 0.041 | 2.05 ± 0.042 | 2.05 ± 0.06 | 2 ± 0.033
38 | NGRLNKCGVISPRFNVK [RPS22A] | 2.58 ± 0.29 | 2.85 ± 0.23 | 2.88 ± 0.2 | 3.22 ± 0.11
39 | LGPLSYQNMAFITAKDK [YJR042W/NUP85] | 2.43 ± 0.075 | 2.22 ± 0.088 | 2.26 ± 0.079 | 2.31 ± 0.058
40 | GSRVLIFSQMSRLLDIL [ISW2] | 3.27 ± 0.15 | 3.46 ± 0.11 | 3.18 ± 0.11 | 3.58 ± 0.08
41 | LPAPPVCIRPSVMMQDS [RPO31] | 1.61 ± 0.081 | 2.08 ± 0.1 | 1.93 ± 0.11 | 2.04 ± 0.095
42 | VQSGQIYINKSVPTNSA [RET1] | 3.29 ± 0.14 | 3.32 ± 0.082 | 3.35 ± 0.091 | 3.33 ± 0.086
43 | VEKTEKPKKPKGRAYKR [RPS30A] | 3.16 ± 0.098 | 3.24 ± 0.091 | 3.07 ± 0.06 | 3.05 ± 0.07
44 | HLRVRVHPFHVLRINKM [RPL10] | 1.12 ± 0.09 | 1.21 ± 0.072 | 1.2 ± 0.087 | 1.27 ± 0.08
45 | IGANIYQSPTIFKIVQS [MED6] | 2.25 ± 0.069 | 2.08 ± 0.072 | 1.84 ± 0.1 | 2.27 ± 0.037
46 | PKNLSTPSTSSNGEFIP [CSE2] | 2.83 ± 0.049 | 2.87 ± 0.045 | 2.79 ± 0.039 | 2.93 ± 0.043
47 | SKTHKTVSRAYGGSRCA [RPL34A] | 2.68 ± 0.071 | 2.91 ± 0.054 | 2.82 ± 0.064 | 2.85 ± 0.048
48 | KKVSRRNARATRAAKIA [RPL13A] | 2.25 ± 0.085 | 2.9 ± 0.1 | 2.39 ± 0.077 | 2.77 ± 0.045
49 | SRQKSGLFDSFTNGVLA [YML031W/NDC1] | 1.68 ± 0.064 | 1.5 ± 0.065 | 1.92 ± 0.12 | 1.49 ± 0.06
50 | LISSSQDMQLKIWSVKD [RPN14] | 2.7 ± 0.12 | 2.73 ± 0.22 | 2.56 ± 0.17 | 2.59 ± 0.1
51 | SEHFLYLAKELNLTGPK [RPN1] | 2.98 ± 0.13 | 2.81 ± 0.15 | 2.35 ± 0.19 | 2.98 ± 0.29
52 | QTQQDLPKVRYNVEKVK [NSL1] | 2.7 ± 0.074 | 2.57 ± 0.063 | 2.75 ± 0.054 | 2.33 ± 0.079
53 | IEEQDKKVQALQSDKNF [ITC1] | 3.23 ± 0.076 | 3.11 ± 0.054 | 3.14 ± 0.045 | 3.16 ± 0.036
